Data as given in PMC4730846 (Science Advances, 2015).

Target: GroEL (Escherichia coli, UniProt P0A6F5 2-548)
Assay: proteinase K protection assay

Sequence of GroEL (P0A6F5 2-548): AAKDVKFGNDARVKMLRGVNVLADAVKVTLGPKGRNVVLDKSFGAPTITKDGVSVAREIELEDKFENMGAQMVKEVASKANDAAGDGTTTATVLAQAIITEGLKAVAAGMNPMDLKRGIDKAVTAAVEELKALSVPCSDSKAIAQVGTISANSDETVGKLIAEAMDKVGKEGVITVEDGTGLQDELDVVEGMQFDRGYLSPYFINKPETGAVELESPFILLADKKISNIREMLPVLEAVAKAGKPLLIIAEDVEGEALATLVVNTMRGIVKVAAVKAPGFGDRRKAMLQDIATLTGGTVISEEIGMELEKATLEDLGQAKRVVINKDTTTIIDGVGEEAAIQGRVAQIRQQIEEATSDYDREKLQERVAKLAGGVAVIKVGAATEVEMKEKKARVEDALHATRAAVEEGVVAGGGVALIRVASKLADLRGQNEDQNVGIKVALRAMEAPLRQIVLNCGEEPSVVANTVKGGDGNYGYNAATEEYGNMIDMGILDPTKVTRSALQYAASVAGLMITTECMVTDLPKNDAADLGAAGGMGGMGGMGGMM

B1: GroES (natural protein)
chain: MNIRPLHDRVIVKRKEVETKSAGGIVLTGSAAAKSTRGEVLAVGNGRILENGEVKPLDVKVGDIVIFNDGYGVKSEKIDNEEVLIMSESDILAIVEA
binding result: binds
